The target of assay [1] is MtCNNMΔC_(Δloop) (Methanoculleus thermophilus CNNM, residues 1-322 Δ259-262) (Methanoculleus thermophilus). Nature of the assay: crystal structure.
Assay [2] concerns the target MtCNNMΔC R235L (Methanoculleus thermophilus). Nature of the assay: crystal structure.

The stoichiometry N is a count of units in the complex or per binding partner. In assay [1], “MtCNNMΔC_(Δloop) (Methanoculleus thermophilus CNNM, residues 1-322 Δ259-262) (domain or fragment)” showed a stoichiometry N of 2.

In assay [2], MtCNNMΔC R235L (domain or fragment) returned a stoichiometry N of 2.

These data come from paper doi:10.1101/2021.02.11.430706.
